In experiment [1] the target is SARS-COV-2 S protein (Wuhan-Hu-1, WT) on MLV pseudotyped particles (SARS-COV-2, UniProt P0DTC2 14-1254). The experiment can be described thus: cell-based or functional assay.
Experiment [2] addresses spike protein of authentic SARS-COV-2 virus (USA_WA1/2020) (SARS-COV-2, UniProt P0DTC2 14-1273). The experiment can be described thus: cell-based or functional assay.
The target in experiment [3] is SARS-COV-2 spike protein receptor binding domain fused to an Fc tag (RBD-Fc, residues 319-541) (Sino … (SARS-COV-2, UniProt P0DTC2 319-541)).
In experiment [4] the target is T1, mitochondrial elongation factor 1 (MIEF1) (human, UniProt Q9NQG6 1-463).
T1 construct: whole, on cells
Put plainly: flow cytometry validation after the membrane proteome array screen. (In general: In flow cytometry, cells or beads pass a laser one at a time.)

T1 sequence (Q9NQG6 whole entry): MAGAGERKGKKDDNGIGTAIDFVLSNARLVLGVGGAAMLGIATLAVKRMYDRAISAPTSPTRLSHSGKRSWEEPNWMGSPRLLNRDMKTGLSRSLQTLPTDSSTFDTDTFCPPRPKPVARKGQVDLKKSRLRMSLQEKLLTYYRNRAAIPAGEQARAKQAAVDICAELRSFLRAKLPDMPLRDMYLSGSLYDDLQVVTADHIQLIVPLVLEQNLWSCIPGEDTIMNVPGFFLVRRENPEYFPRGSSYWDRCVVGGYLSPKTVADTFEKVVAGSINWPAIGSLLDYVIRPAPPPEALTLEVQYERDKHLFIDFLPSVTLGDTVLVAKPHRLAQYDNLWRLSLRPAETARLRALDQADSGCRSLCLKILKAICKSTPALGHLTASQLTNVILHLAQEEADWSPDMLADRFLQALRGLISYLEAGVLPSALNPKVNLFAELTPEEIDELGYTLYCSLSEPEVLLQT

B1: RBD-1-2G-Tri (bispecific antibody)
chain: EVQLVESGGGLVQPGGSLRLSCAASGFSSIVYMGWFRQAPGKGRELVAAIDASGSTTNYPDSVEGRFTISRDNAKRMVYLQMNSLRAEDTAVYYCAIAYFTSPEYVVSQGWGQGTQVTVSSGGGGSGGGGSGGGGSEVQLVESGGGLVQPGGSLRLSCAASGFSSIVYMGWFRQAPGKGRELVAAIDASGSTTNYPDSVEGRFTISRDNAKRMVYLQMNSLRAEDTAVYYCAIAYFTSPEYVVSQGWGQGTQVTVSSGGGGSGGGGSGGGGSEVQLVESGGGLVQPGGSLRLSCAASGFSSIVYMGWFRQAPGKGRELVAAIDASGSTTNYPDSVEGRFTISRDNAKRMVYLQMNSLRAEDTAVYYCAIAYFTSPEYVVSQGWGQGTQVTVSSHHHHHH
Regarding B1, the “IC50, pseudotyped particle entry assay, wildtype particles” value (“IC50, pseudotyped particle entry assay” for short) in experiment [1] stood at 4.5 nM. Moreover, the “IC50, SARS-COV-2 live virus (CPE) assay on Vero E6 cells” value (shortened to “IC50, SARS-COV-2 live virus (CPE) assay”) in experiment [2] is 182 nM.

B2: RBD-1-2G-Fc (Fc fusion)
chain: EVQLVESGGGLVQPGGSLRLSCAASGFSSIVYMGWFRQAPGKGRELVAAIDASGSTTNYPDSVEGRFTISRDNAKRMVYLQMNSLRAEDTAVYYCAIAYFTSPEYVVSQGWGQGTQVTVSS
notes: also called bivalent format of RBD-1-2G
Consider B2, for which the “IC50, pseudotyped particle entry assay” value in experiment [1] amounted to 10.2 nM. In addition, the “IC50, SARS-COV-2 live virus (CPE) assay” value in experiment [2] was found to be 255 nM.

B3: single-domain antibody RBD-1-2G (VHH)
VHH: EVQLVESGGGLVQPGGSLRLSCAASGFSSIVYMGWFRQAPGKGRELVAAIDASGSTTNYPDSVEGRFTISRDNAKRMVYLQMNSLRAEDTAVYYCAIAYFTSPEYVVSQGWGQGTQVTVSS
notes: also called RBD-1-2G Nb; RBD-1-2G nanobody
The term IC50 denotes the concentration that gives 50% inhibition. Low values mean higher potency, high ones lower potency. In experiment [3], B3 had an IC50 of 28.3 nM. Further, in experiment [1], the “IC50, SARS-COV-2 pseudotyped particle entry assay (HEK293-ACE2 cells)” value was determined as 490 nM and the “IC50, pseudotyped particle entry assay” value came to 512 nM. Also, in experiment [2], the “IC50, SARS-COV-2 live virus (CPE) assay” value was found to be 1210 nM; the “IC50, SARS-COV-2 live virus assay, lyophilized and reconstituted RBD-1-2G” value was determined as 5900 nM; the “IC50, SARS-COV-2 live virus assay, untreated RBD-1-2G” value was 14800 nM. In experiment [4], the binding result is on record as “no binding”.

The record behind these values is US20240401239A1 (US Dept. of Health and Human Services, published 2024).
